Results reported in patent US5472872.

Tests used:
[1] = biological target: T1, R.CviJI restriction endonuclease (Chlorella virus IL-3A) (UniProt P52283); assay: cleavage_in_vitro
T1 sequence: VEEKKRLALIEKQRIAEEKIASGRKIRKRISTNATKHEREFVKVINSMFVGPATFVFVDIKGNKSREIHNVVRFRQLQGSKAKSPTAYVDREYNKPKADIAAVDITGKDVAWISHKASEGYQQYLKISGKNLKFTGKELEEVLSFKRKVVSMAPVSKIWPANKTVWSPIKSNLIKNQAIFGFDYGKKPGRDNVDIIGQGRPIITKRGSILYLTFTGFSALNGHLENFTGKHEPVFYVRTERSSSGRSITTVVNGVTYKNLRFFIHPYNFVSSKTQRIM

[2] = test system: M.CviJI methyltransferase (Chlorella virus IL-3A); assay: cell_activity; details: p710 in E. coli; SacI 90%, HindIII 25%; improved-translation plasmids appeared 100% resistant
[3] = CviJI*, 5 uncleaved, CviJI** 1 of 76 (Table 5)
[4] = CviJI*, 3 uncleaved, CviJI** 0 of 76 (Table 5)

AGCG (double strand) [AGCG site in pUC19 (relaxed R2 PuGCPu)]
activity (cleaved junctions of 200) ([1]; CviJI*, 11 uncleaved, CviJI** 0 of 76 (Table 5)): 12

GGCG (double strand) [GGCG site in pUC19 (relaxed R2 PuGCPu)]
activity (cleaved junctions of 200) ([1]; CviJI*, 8 uncleaved, CviJI** 4 of 76 (Table 5)): 18

AGCC (double strand) [AGCC site in pUC19 (normal PuGCPy)]
activity (cleaved junctions of 200) ([1]; CviJI* (Mg, ATP, DTT), 1 uncleaved, CviJI** 13 of 76 (Table 5)): 23

CGCA (double strand) [CGCA site in pUC19 (R3 PyGCPu)]
activity (cleaved junctions of 200) ([1]; CviJI*, 12 uncleaved, CviJI** 0 of 76 (Table 5)): 0

AGCA (double strand) [AGCA site in pUC19 (relaxed R2 PuGCPu)]
activity (cleaved junctions of 200) [1, 3]: 13

TGCT (double strand) [TGCT site in pUC19 (relaxed R1 PyGCPy)]
activity (cleaved junctions of 200) [1, 3]: 10

TGCA (double strand) [TGCA site in pUC19 (R3 PyGCPu)]
activity (cleaved junctions of 200) ([1]; CviJI*, 19 uncleaved, CviJI** 0 of 76 (Table 5)): 0

TGCC (double strand) [TGCC site in pUC19 (relaxed R1 PyGCPy)]
activity (cleaved junctions of 200) ([1]; CviJI*, 10 uncleaved, printed TOCC in Table 2, CviJI** 2 of 76 (Table 5)): 13

CGCG (double strand) [CGCG site in pUC19 (R3 PyGCPu)]
activity (cleaved junctions of 200) ([1]; CviJI*, 27 uncleaved, CviJI** 0 of 76 (Table 5)): 0

GGCA (double strand) [GGCA site in pUC19 (relaxed R2 PuGCPu)]
activity (cleaved junctions of 200) [1, 4]: 11

GGCC (double strand) [GGCC site in pUC19 (normal PuGCPy)]
activity (cleaved junctions of 200) ([1]; CviJI*, 1 uncleaved, CviJI** 16 of 76 (Table 5)): 24

AGCT (double strand) [AGCT site in pUC19 (normal PuGCPy)]
activity (cleaved junctions of 200) ([1]; CviJI*, 0 uncleaved, CviJI** 25 of 76 (Table 5)): 35

TGCG (double strand) [TGCG site in pUC19 (R3 PyGCPu)]
activity (cleaved junctions of 200) [1, 4]: 0

GGCT (double strand) [GGCT site in pUC19 (normal PuGCPy)]
activity (cleaved junctions of 200) ([1]; CviJI*, 0 uncleaved, CviJI** 12 of 76 (Table 5)): 13

CGCC (double strand) [CGCC site in pUC19 (relaxed R1 PyGCPy)]
activity (cleaved junctions of 200) ([1]; CviJI*, 4 uncleaved, CviJI** 0 of 76 (Table 5)): 11

CGCT (double strand) [CGCT site in pUC19 (relaxed R1 PyGCPy)]
activity (cleaved junctions of 200) ([1]; CviJI*, 7 uncleaved, CviJI** 2 of 76 (Table 5)): 17

plasmid p710/pBMC5 (G/A)GC(T/C/G) sites
activity (% resistance to HaeIII) [2]: 90
